Our source for the IC50 values is US20260042827A1 (published 2026).

Experiment [1] addresses T1, HLA-DP2 (human, UniProt P20036 29-222; P04440 30-225).
T1 chain 1: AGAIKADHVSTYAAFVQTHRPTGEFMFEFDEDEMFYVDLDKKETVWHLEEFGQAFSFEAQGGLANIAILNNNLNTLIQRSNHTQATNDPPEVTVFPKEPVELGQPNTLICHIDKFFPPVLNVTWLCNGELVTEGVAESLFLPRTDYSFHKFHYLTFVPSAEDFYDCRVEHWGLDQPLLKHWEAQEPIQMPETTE
T1 chain 2: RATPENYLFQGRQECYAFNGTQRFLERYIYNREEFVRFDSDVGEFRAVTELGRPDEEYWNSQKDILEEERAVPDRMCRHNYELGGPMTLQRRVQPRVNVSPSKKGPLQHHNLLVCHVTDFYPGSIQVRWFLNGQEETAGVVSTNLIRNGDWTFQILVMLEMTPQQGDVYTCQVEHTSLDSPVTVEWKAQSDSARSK
Description: competition.

Experiment [2] concerns the target T2, HLA-DP4 (human, UniProt P20036 29-222; P04440 30-225).
T2 chain 1: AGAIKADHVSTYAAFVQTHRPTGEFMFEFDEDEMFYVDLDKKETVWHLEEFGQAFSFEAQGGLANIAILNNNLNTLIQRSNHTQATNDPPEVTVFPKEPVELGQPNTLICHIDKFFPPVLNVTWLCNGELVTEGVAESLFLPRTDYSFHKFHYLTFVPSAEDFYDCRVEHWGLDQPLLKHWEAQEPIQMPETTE
T2 chain 2: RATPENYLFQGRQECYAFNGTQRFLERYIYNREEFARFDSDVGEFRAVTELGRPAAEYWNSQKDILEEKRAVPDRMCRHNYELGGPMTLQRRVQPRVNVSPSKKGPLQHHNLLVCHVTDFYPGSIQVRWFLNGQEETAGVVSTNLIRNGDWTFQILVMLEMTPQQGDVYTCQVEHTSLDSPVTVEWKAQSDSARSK
Description: competition.

B1: WT1328-348 (peptide)
peptide: PGCNKRYFKLSHLQMHSRKHT
As for B1, the IC50 was found to be 8 µM in experiment [1] and 23.8 µM in experiment [2].

The IC50 is the concentration that inhibits the measured activity by half.
